Source: PMC6150290

Legend:
Assay in all cases: EMSA
Details in all cases: EMSA: 0.5 nM DNA duplex, 20 uL, 10 mM Tris-HCl pH 7.6, 5 mM DTT, 10% (component cut off in material), no NaCl; temperature not in material
[1] = tested on: S134P OGT (Escherichia coli)
C145S hAGT (human) = tested on: C145S hAGT (human)
[2] = tested on: OGT (wild type) (Escherichia coli)

Control (G-C) showed a Kd [1] of 860 nM, a Kd (C145S hAGT (human)) of 10600 nM and a Kd [2] of 1230 nM.
